Assay results reported in PMC4191985.

Biological target: BamA^Eco (Escherichia coli) (UniProt P0A940)
Assay: flow cytometry on cells
Details: remark: other sources report otherwise

With CdiA^EC93, Q3YL96 33-3132 the percent of target cells bound to inhibitor cells was 73%.
